The assay addresses T1, tumor-associated antigen RG1 (Homo sapiens (Human), UniProt Q9BUD6 27-331).
T1 construct: Coated directly on 96-well plates at 1 ug/ml; also called RGI
T1 sequence: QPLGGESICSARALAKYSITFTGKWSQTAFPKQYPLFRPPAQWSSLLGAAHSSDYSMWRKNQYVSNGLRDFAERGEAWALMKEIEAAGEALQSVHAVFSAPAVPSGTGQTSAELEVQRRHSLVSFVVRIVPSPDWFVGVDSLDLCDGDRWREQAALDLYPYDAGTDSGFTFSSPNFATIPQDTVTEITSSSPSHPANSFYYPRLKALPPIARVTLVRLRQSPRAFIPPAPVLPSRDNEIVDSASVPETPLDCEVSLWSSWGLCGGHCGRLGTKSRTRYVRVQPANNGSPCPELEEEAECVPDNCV
Description: RG1-binding ELISA, RG1 coated on plate, 4-parameter fit.
Description: RG1-binding ELISA. A bispecific antibody containing Linker 1, anti-RG1 antibody 19G9, and polyclonal nonimmune control human IgG kappa were analyzed for binding to RG-1. Curve fitting of the data was performed using a 4-parameter equation with the Solver function in Microsoft Excel.
Ninety-six well plates were coated with RG1 (1 μg/ml) by overnight incubation, and the plates were then washed (5×) with PBS containing 0.5% Tween-20. Samples and controls (serially diluted) were added to the wells and incubated for 1 hr, followed by washes (5×) with PBS containing 0.5% Tween-20. Horserandish peroxidase (HRP)-conjugated anti-human IgG or HRP-conjugated anti-human Fab were diluted in PBS (1:5000) and added to each well. Following a 1 hr incubation, the plates were washed again. Amplex Red (10 μg/ml) was added to each well, and the signal was read using a plate reader. The data was analyzed using Softmax (Molecular Devices, Sunnyvale, Calif.).

B1: anti-RG1 IgG 19G9 (antibody, V domains shown)
VH: QVQLVQSGGGLVQPGGSLRLSCAGSGFTFSSYVMHWLRQAPGKGLEWVSVIGTGGVTHYADSVKGRFTISRDNAKNSLYLQMNSLRAEDTAVYYCARWGYYGSGSYENDAFDIWGQGTMVTVSS
VL: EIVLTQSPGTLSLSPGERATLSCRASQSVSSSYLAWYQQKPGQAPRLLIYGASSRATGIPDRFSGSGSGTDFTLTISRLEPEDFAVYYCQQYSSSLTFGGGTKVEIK
B1: the half-maximal inhibitory concentration (IC50) worked out at 1.4 nM. This lies in the single-digit nanomolar range.

A word on the IC50: it is the concentration that gives 50% inhibition.

These data come from patent US20110229476A1 (Bayer, published 2011).
